Test: yeast display, Sf9 membrane polyspecificity reagent, FACS + sequencing; frameworks hold sequencing errors
Outline: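 Sorting gates, low and high (top ~1%), were placed on anti-HA fluorescence to track expression and on streptavidin fluorescence to track reagent binding. A clone's polyreactivity label is taken from the gate it came out of. The reagent was 10% biotinylated, detergent-solubilized Sf9 membrane, applied for 1 hour at 4 °C to galactose-induced yeast display cells.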

| Sequence | polyreactivity (PSR sort gate) |
| --- | --- |
| QVQLHESGSGLVQAGGSLRLSCAASGAIFPANLMGWYRQAPGKERELVAGISYGSITYCADSVKGRFNISRDNAKHTVYLQMNSLKPEDTAVYYCEVWRPGGDEYYYWGQGTQVTVSS | low polyreactivity |
| QGQLVESGGGLDQAGGSLRLSCAASGSIFHGNAMGWYRQAPGKERELVAVISDGGYTDYADSVKGRFTISRDNAKNTVYLQMNSLKPEDTAGYYCNADYDTQYFYRNPIYYLSGYDYRGQGTQVTVSS | low polyreactivity |
| QVQHVESGGGLDQAGGSLRLSCAASGSIYVGNEMGWSRQATGKETELVDTISWSGGSTYYADSVKGRFTISRDNAKNTVYLQMNSLKPEDTAVYYCAKTPYRRYRYGGYNYRTYDYWGQGTQVTVSS | low polyreactivity |
| QVQHVESGGGLVQAGGSLRLSCAASVSIFYDYAMGWYRQAPGKERELVAAINKSGGSTYYADSVKGRFTISRDNAKNTVYLQMNSLKPEDTAVYYCIARKRLGPVRYGYWGQGTQVTVST | high polyreactivity |
| QVQLVESGGGLVQAGGSLRLSCAASGSIFRGNAMGWYRQAPGKERELVAGINRAGSTKYADSVKGRFTISRDNAKNTVYLQMNSLKPEDTAVYYCAAVRYERGLWSDYWGQGTQVSVSS | high polyreactivity |
| QVQLVESGGGLVQAGGSLRLSCASSGFIFKRYAMGWYRQAPGKERELVAAITSGGSTHYADSVKGRFTISRDNAKNTVYLQMNSLKPEDTAVYYCATRRYKWGVRYDYWGQGTQVTVSS | high polyreactivity |
| IILPGGRILLSCAASGRTFSGYGLGWYRQAPVKERELIADITSGGSTYYADSVKGRFTISRDNAKNTVYLQMNILIPVDTAVYYCAAERQIRSFWSSRTYEFGYWGQGTQVNVSS | low polyreactivity |
| QVQLVESGGGLVQAGGSLRLSCAASGRIFPKYAMGWYRQAPGKERELVAAISRRGSSTYYADSVKGRFTISRDNAKNTVYLQMTSLKPEDTAVYYCATDARDGHDYWGQGTQVTVSS | high polyreactivity |
| QVQLVESGGGLVQAGGSLRLSCAASGITFNSYAMGWYRQAPGKERELVAAISGSGSSTYYADSVKGRFTISRDNAKNTVYLQMNSLKPEDTAVYYCAATVYSSWTYYTHEYWGQGTQVTVSS | low polyreactivity |
| QVHLVESGGGLVQAGGSLRLSSPASGRIFYRKALGWSRQETGKERELVAAISSSGGSTYYADSVKGRFTISRDNAKNTVYLQMNSLKPEDTEVYYCNKAVWGRSKYDFCGQGTQVTVSS | high polyreactivity |
| QVQLVESGGGLVQAGGSLRLSCAASGSIFLVNARGWYRQAPAKERELVASITWRGGRTYYADSVKGRFTISRDNAKNTDYLQMNSLKPEDTAVYYCAARNYRTGERLRYDYWGQGTQVTVSS | low polyreactivity |
| QVQLVESGGGLVQAGGSLRLSCAASGRTFSVYTMGWYRQAPGKERELVASINWSGGRTYYADSVKGRFTISRDNAKNSVYLQMNSLKPEDTAVYYCAATGWRTLYDYWGQGTQVTVSS | high polyreactivity |
| QVQLVESGGGLVQAGGSLRLSSAASGFIFPAYAMGWYRQAPGKDRELVAAISKSGGRTYYADSVKGRFTISRDNAKNTVYLQMNSLKPEDTAVYYCNKYRYPREQYTWKYAWGYDYWGQGTQVTVSS | high polyreactivity |
| QVQLVESGGGLVQAGGSLRLSCAASGRIFAQYALGWYRQAPGKERELVAGIDRRGGSTYYADSVKGRFTISRDNAKNTVYLQMNSLKPEDTAVYYCNALREDPLFFVYIGGGYWGQGTQVTVSS | low polyreactivity |
| QVQLVESGGGLVQAGGSLRLSCAASGSTFIDYAMGWYRQAPGKERELVAAITWSGSSTYYADSVKGRFTISRDNAKNTVYLQMNSLKPEDTAVYYCAARYWYQSYHTYGYYSWGQGTQVTVSS | low polyreactivity |
| QVQLVESGGGLVQAGGSLRLSCSASGRTFSAYAMGWDRPAPGKERELVARITSVDSTNYADSVKGRFTISRDNAKNSVYLKMNSLTPEDTAVYYCNATFCYPFFDYDDYWGQGTQVTVSS | low polyreactivity |
| QVQLVETGGGLVQAGGSLRLSCAASGFTIQRYAMGWYRQAPGKEREFVAAITSGGSTYYADSVKGRFTISRDNAKNTVYLQMNSLKPEDTAVYYCATRAVWSSWGRRYDSWGQGTQVTVSS | high polyreactivity |
| QVQLVESGGGLVQAGRSIRLSCAASGSTFAKYAMGWYRQAPAKERELVAAISSSGSRTYYADSVKGRFTISRDYAKNTVYLQMNILKTEDTAVYYCAALIVKPGGRVYYGGQGTQVTVSS | high polyreactivity |
| QVQLVESGGGLVQAGGSLRLSCAASGRTFRTNAMGWYRQAPGKERELVAAIRASTGSTYYADSVKGRFTISRDNAKNTVYLQMNSLKPEDTAVYYCAATTQGVRYGYWGQGTQVTVSA | high polyreactivity |
| QVQLVESGGGLVQAGGSLRLSCAASGIIFGRYAMGWYRQAPGKERELVAAINASGGSTYYADSVKGRFTISRDNAKNTVYLQMNSLKPEDTAVYYCATVHVWGFVYVGSGYWGQGTQVTVSS | high polyreactivity |
| QVQLVESGGGLVQAGGSLRLSCAASGFIFGVYPMGWYRQAPGKERELVAAISRSGGSTYYADSVKGRFTISRDSAKNTVYLQMNSLNPEDTAVYYCATHVSLYGKGYYYWGQGTQVTVSS | high polyreactivity |
| QVQLVESGGGLVQAGGSLRLSCAASGRTFFGYAMGWYRQATGKERELVAAINWGGASTYYADSVKGRFTISRDNAKNTVYLQMNSLKPEDTAVYYCAADSVPSRPTYGRYDYWGQGTQVTVSS | low polyreactivity |

| Sequence | polyreactivity (PSR sort gate) |
| --- | --- |
| QVQLVESGGGLVQAGGSLRLSCAASGFTFRIYTMGWYRQAPGKERELVAAISSRGGSTYYADSVKGRFTISRDNAKNTVDLQMNSLKPEDTAVYYCAASGRVYSSGYDYWGQGTQVTVSS | high polyreactivity |
| QVHLVESGGCLVQAGGSLRLICAASGRIFDGNTMGWYRQEPGKERELVAAISGVGSTDYADSVKGRYTISRDNAKNTVYFQINSLKPEDTAVYYCAATTGPVPLKGDYWGQGTQVTVSS | low polyreactivity |
| QVQLVESGGGLVQAGGSLRLSCAASGSIFWYNAMGWYRQAPGKERELVARISSSGDSTYYADSVKGRFTISRDNAKNTVYLQINSLKPEDTAVYYCNVDYWSISESSWGYYTSYDYWGQGTQVTVSS | high polyreactivity |
| QDQHVESGGGLVQAGGSLRLSCAASGRISKRNVMGWYRPAPGKERELVACISSTGSTSYADSVKGRFTISRDNAKYTVYLQMNSLNPEDTAVYYCAARGQATYNWGQGTQVTVSS | high polyreactivity |
| QVQLVESGGGLVQAGGSLRLSCAASGSIFGRYVKGWYRQAPGKERELVATISSGGSTYYADSVKGRFTISRDNAKNTVYLQMNSLKPEDTAVYYCAASYSRFVDWIGDPGYDYWGQGTQVTVSS | low polyreactivity |
| QVQLVESGGGLVQAGGSLRLSCAASGRIFANNAMGWYRQAPGKERELVAAINWSGSRTYYADSVKGRFTISRDNAKNTVYLQMNSLNPEDTAVYYCAAVGRWGVTGSHHDAYDYWGQGTQVTVSS | high polyreactivity |
| QVQLVESGGGLVQAGGSLRLICAASGLTFYYYAMGWYRQAPGKERELVAASSTRGTSTYYADSVKGRFTISRDNSKNTVYLQMNSLKPEDTAVYYCAADSYPCGTGGDYWGQGTQVTVSS | high polyreactivity |
| QVQLVESGGGLVQAGGSLRLSCAASGRIFGKYAMGWYRQAPRKERELVARISFSGGTTYYADSVKGRFTISRDNAKNTVYLQMKSLKPEDTAVYYGNARRVWSQRWAYDSWGQGTQVTVSS | high polyreactivity |
| QVQLVESVGGLVQAGGSLRLSCAATGRTFAWYALGWYRQAPGKERELVAAISSGGSTYYADSVKGRFTISRDNAKNTVYLQMNSLKPEDTAVYYCAAEWHYIYAYDYWGQGTQVTVSS | low polyreactivity |
| QVQLVESGGGLVQAGGSLRLSCAASGIIFWYYAMGWYRQAPGKDRELVARITTAGITNYADSVKGRFTISRDNAKNTVYLQMNSLKPEDTAVYYCAADTYWHYRGPGYDYWGQGTQVTVAS | low polyreactivity |
| QVQLVESGGGLVQAGGSLRLSCAASGRNFSRNAMGWYRQAPGKERELVAAISSGGRTKYADSVKGRFTISRDNAKNTVYLQMNSLKPEDTAVYYCAATDPRSWYGRGRYDYWGQGTQVTVSS | high polyreactivity |
| QVQLVESGGGLVQAGGSLRLSCAASGSTFLYYAMGWYRQAPGKERELVAAITSSGGRTYFADSVKGRFTISRDNAQNTVYLQMNSLQPEDTAVYYCARGWPRREQSEYDYWGQGTQVTVSS | high polyreactivity |
| QVQLVESGGGLVQAGGSLRLSCAASGSIFRLYAMGWYRQAPGKERELVAAITRGDSTNYADSVKGRFTISRDNAKNTVYLQMNSLKPEDTAVYYCAVTGRLYAHPQGYDYWGQGTQVTVSS | low polyreactivity |
| QVQLVESGGGLVQAGGSLRLSCAASGFTFVPYTMGWYRQAPGKERELVPRINTSGGGTYYADSVKGRFTISRDNAKNTVYLQMNSLKPEDTAVYYCAARRNYRAQPKTRWTGYYYWGQGTQVTVSS | high polyreactivity |
| QVQLVESGGRLVQAGGSLRLSCAASGFTFLYYAMGWYRQAPGKERELVATITRTSRTYYADSVKGRFTISRDNAKNTVYLQMNSLKPEDTAVYYCAADTPYLRRRLGMDYWGQGTQVTVSS | high polyreactivity |
| QVQLVESGGGLVQAGGSLRLSCAASGSIFGYYVMGWYRQAPGKERELVAAISGSDSSTYYADSVKGRFTISRDNAKNTVYLQMNSLKPEDTAVYYCNADLRYYPVEFDYWGQGTQVTVSS | low polyreactivity |
| QVQLVESGGGLVQAGGSLRLSCAASGRIFGNYAMGWYRPATGKESELVAAISGGGSTYYADSVKGRFTISRDNAKNTVYLQMNSVKPEDTAVYYCAARFMWSVFGRKGGYWGQGTHVTVSS | low polyreactivity |
| QVQLVESGVGIVQAGCSLRLSCAASGSIFRYYAMGLYRQAPGKERELVAGITASTGRTYYADSVKGRFTISRDNAKNTVYLQMNSLKPEDTAVYYCAARSRYYEYDYWGQGTQVTVSS | low polyreactivity |
| QVQLLESGGGLVQAGGSLRLICAASGRIIYGYAMGWYRQAPGKERELVAAITATYYADSVKGRFTISRDNAKNTVYLQMKSLKPVDSGVYYCNAYLSPKQPLSTPDPSFEGGYWGQGTQVTVSS | low polyreactivity |
| QVQLVESGGGLVQAGGSLRLSCAASGGIFTPYAMGWYRQAPGKERELVAAISRSGGSTYYADSVKGRFTISRDNAKNTVYLQMNSLKPEDTAVYYCNALFRALKAFSQYNYWGQGTQVTVSS | high polyreactivity |
| QVQLVESGGGLVQAGGSLRLSCAASGITFGSYAMGWYRQAPGKERELVAAITSGGGTNYADSVKGRFTISRDNPKNTVYLQMNSLKPEDTAVYYCAARYYYLGTRYGYWGQGTQVTVSS | low polyreactivity |

From the nanobody polyreactivity screen of Harvey et al. (2022)
